Data as given in article PMC12143597, “The low endoribonuclease activity and lack of rNMP preference of human mitochondrial topoisomerase 1 protect against ribonucleotide-dependent deletions”.

T1: scTOP1 catalytically inactive variant (Saccharomyces cerevisiae) (UniProt P04786)
T1 sequence: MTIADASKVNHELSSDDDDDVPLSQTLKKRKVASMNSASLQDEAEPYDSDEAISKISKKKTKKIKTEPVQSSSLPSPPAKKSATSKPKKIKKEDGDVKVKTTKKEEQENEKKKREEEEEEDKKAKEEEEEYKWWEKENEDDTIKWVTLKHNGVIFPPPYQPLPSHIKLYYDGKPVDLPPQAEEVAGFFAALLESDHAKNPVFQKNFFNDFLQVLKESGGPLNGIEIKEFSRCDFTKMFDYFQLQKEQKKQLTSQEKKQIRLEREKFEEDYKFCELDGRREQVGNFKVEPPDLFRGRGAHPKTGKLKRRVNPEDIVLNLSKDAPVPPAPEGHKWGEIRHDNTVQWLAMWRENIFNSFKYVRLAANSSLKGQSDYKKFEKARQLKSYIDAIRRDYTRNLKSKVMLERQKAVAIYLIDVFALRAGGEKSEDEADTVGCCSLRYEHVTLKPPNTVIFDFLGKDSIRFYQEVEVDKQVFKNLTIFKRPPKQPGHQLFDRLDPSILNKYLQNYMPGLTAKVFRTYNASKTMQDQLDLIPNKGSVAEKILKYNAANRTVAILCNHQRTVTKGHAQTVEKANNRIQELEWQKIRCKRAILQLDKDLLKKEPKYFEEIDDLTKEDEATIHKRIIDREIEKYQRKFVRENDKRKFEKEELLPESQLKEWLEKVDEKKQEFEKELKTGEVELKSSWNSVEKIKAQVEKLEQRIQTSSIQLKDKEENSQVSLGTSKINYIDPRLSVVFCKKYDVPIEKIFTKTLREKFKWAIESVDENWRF

T2: hTOP1MT catalytically inactive (Y955F) (Homo sapiens, UniProt Q969P6 =DIKLIDTVDLE+51-601, Y559F;internal_change)
T2 sequence: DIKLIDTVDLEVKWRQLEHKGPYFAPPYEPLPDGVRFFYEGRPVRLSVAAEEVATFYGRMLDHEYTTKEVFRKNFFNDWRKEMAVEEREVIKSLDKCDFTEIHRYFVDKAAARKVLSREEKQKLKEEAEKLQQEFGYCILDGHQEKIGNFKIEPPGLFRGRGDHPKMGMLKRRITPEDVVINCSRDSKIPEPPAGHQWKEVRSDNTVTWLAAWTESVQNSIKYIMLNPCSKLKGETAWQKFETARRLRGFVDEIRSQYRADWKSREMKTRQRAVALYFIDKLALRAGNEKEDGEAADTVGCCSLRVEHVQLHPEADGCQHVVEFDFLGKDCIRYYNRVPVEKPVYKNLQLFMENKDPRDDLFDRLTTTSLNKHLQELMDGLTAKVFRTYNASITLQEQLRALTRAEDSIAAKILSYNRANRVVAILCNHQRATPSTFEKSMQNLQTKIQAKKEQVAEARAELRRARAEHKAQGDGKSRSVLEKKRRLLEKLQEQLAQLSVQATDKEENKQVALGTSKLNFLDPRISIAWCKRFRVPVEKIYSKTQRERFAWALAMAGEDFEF


What was measured:
[1] = molecular target: T1, scTOP1 catalytically inactive variant (Saccharomyces cerevisiae); test: fluorescence anisotropy; conditions: 20 mM Tris pH 8, 66 mM NaCl, 1 mM DTT, 2% glycerol, 0.5 nM DNA, 0-60 nM TOP1, 10 min at 37 C, errors are SEM of 3-5 experiments
[2] = molecular target: T2, hTOP1MT catalytically inactive (Y955F …); test: fluorescence anisotropy; 20 mM Tris pH 8, 66 mM NaCl, 1 mM DTT, 2% glycerol, 0.5 nM DNA, 0-60 nM TOP1, 10 min at 37 C; errors are SEM of 3-5 experiments; conditions: protein: recombinant; tags: GST tag removed by 3C protease; label: 5'-FAM on strand 1; blunt
[3] = molecular target: hTOP1 catalytically inactive variant (Homo sapiens, UniProt P11387 1-765, Y723F); test: as above; conditions: protein: recombinant; tags: N-terminal GST tag removed by 3C protease; label: 5'-FAM on strand 1; blunt
Chain of hTOP1 catalytically inactive variant (P11387 whole entry Y723F): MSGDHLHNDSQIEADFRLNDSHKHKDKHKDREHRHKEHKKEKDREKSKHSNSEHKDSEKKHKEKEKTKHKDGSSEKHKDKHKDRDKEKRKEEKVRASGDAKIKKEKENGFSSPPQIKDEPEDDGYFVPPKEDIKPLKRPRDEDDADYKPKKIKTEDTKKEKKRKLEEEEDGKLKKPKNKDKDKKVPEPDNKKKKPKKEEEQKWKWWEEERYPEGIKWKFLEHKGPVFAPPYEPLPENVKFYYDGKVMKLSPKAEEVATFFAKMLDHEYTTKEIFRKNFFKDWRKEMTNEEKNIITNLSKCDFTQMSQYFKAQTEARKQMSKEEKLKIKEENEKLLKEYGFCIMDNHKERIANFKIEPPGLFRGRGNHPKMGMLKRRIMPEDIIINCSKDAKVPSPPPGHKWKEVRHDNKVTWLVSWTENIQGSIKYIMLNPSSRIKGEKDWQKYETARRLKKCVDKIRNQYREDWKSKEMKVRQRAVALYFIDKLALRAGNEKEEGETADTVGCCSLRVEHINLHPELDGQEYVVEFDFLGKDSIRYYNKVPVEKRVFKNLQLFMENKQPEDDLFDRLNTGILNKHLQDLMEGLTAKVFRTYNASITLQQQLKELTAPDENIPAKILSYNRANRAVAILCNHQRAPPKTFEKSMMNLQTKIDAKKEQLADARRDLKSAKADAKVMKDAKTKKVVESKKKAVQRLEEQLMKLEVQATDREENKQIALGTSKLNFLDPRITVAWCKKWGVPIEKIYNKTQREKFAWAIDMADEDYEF

Row | Molecule | Kd [2] | Kd [3] | other results
1 | ACTCGTCACGAGAGAGATGCCACGGTATTTCAAA (double strand) [Substrate C] | – | – | Kd [1]: 6.6 nM
2 | ACTCGTCACGAGAGAGATGCCACGGTATTTCAAA (double strand) [Substrate D (rG upstream of cleavage site)] | – | – | Kd ([1]; single ribonucleotide rG at position 16 of strand 1, all else DNA): 6 nM
3 | AGCGTTGAAGATATGTGGCAAAACCTTTGT (double strand) [Substrate A] | – | – | Kd [1]: 4.6 nM
4 | AGCGTTGAAGAUATGTGGCAAAACCTTTGT / ACAAAGGTTTTGCCACATATCTTCAACGCT [Substrate B (rU at cleavage site)] | – | – | Kd ([1]; single ribonucleotide rU at position 12 of strand 1, all else DNA): 5.5 nM
5 | Substrate D (rG upstream of cleavage site) (dsDNA, single ribonucleotide rG at position 16 of strand 1; all else DNA) DNA 1: ACTCGTCACGAGAGAGATGCCACGGTATTTCAAA DNA 2: TTTGAAATACCGTGGCATCTCTCTCGTGACGAGT | 4.6 ± 0.37 nM | 1.2 ± 0.09 nM | –
6 | Substrate C (dsDNA) DNA 1: ACTCGTCACGAGAGAGATGCCACGGTATTTCAAA DNA 2: TTTGAAATACCGTGGCATCTCTCTCGTGACGAGT | 4.7 ± 0.83 nM | 1.8 ± 0.05 nM | –
7 | Substrate A (dsDNA) DNA 1: AGCGTTGAAGATATGTGGCAAAACCTTTGT DNA 2: ACAAAGGTTTTGCCACATATCTTCAACGCT | 8.3 ± 0.59 nM | 0.97 ± 0.06 nM | –
